Assays:
[1] = molecular target: Fc-tagged SARS-CoV-2 spike receptor-binding domain (RBD) (SARS-CoV-2) (UniProt P0DTC2); test: BLI; Fc-tagged RBD (20 ug/ml) loaded on anti-hIgG Fc Capture (AHC) biosensors, Fab in solution; room temperature; 1x PBS pH 7.4, 0.01% BSA, 0.002% Tween 20; 1:1 binding model
[2] = molecular target: Fc-tagged SARS-CoV-2 receptor-binding domain (RBD), wild type (SARS-CoV-2) (UniProt P0DTC2); test: BLI; Fc-tagged RBD (20 ug/ml) loaded on anti-hIgG Fc Capture (AHC) biosensors, Fab in solution at four to five concentrations; Octet Red96e, room temperature, 1x kinetics buffer (1x PBS pH 7.4, 0.01% w/v BSA, 0.002% v/v Tween 20); 1:1 binding model
[3] = molecular target: Fc-tagged SARS-CoV-2 RBD (SARS-CoV-2) (UniProt P0DTC2); test: BLI; Octet Red96e, room temperature; Fc-tagged RBD (20 μg/ml) loaded on anti-hIgG Fc Capture (AHC) biosensors, Fab in solution; 1× kinetics buffer (1× PBS pH 7.4, 0.01% BSA, 0.002% Tween 20); 60 s association, 60 s dissociation; 1:1 binding model

Substance	Kd [1]	Kd [3]	also measured
CC12.3 Fab, F58 (wild type)	14 nM		
CC12.3 Fab, wild type			Kd [2]: 14 nM
COV107-23 paired with the light chain of COVD21-C8 (Fab)		> 1000 nM	
COVD21-C8 heavy chain paired with the light chain of COV107-23 (Fab)		> 1000 nM	
COV107-23 Fab, Y58 variant (heavy chain F58Y)	362 nM		
